Laboratory results: paper PMC5679380

Target: D-tagatose 3-epimerase from Rhodobacter sphaeroides (Rhodobacter sphaeroides)
Test: SEC; Superdex200 10/300 GL, 20 mM Tris-HCl pH 8.0, 100 mM NaCl, 1 mM dithiothreitol; 50 ug of purified RsDTE; six standard protein markers (6.5-158 kDa) for calibration

Work on “D-tagatose 3-epimerase from Rhodobacter sphaeroides (enzyme)” yielded a stoichiometry N of 4.
